Measured values reported in patent US20250059297A1.

Tests used:
[1] = biological target: human HER2 (hHER2) on cells (human); assay: cell-based or functional assay
[2] = biological target: HER2 and TROP2 expressed together on NCI-H292 cells and NCI-N87 cells (human); assay: cell-based or functional assay
[3] = biological target: human HER2 (hHER2) on cells (human); assay: flow cytometry, NCI-H292 cells (express HER2 and TROP2)
[4] = biological target: human HER2 (hHER2) on cells (human); assay: flow cytometry, NCI-N87 cells (express HER2 and TROP2)

Isotype control (antibody) showed an endocytosis: MFI [1] of 9840, an endocytosis: Percentage of Positive (%) [1] of 1.1% and an endocytosis, direct detection: MFI [2] of 4900. It also gave an endocytosis, direct detection: Percentage of Positive Population [2] of 1.86%, an endocytosis, indirect detection: MFI [2] of 4920 and an endocytosis, indirect detection: Percentage of Positive Population [2] of 1.88%.
In the case of Pertuzumab analog (antibody), the endocytosis, direct detection: MFI [1] is reported as 15700, the endocytosis, direct detection: Percentage of Positive Population [1] is reported as 74.7% and the endocytosis, indirect detection: MFI [1] is reported as 21000. The endocytosis, indirect detection: Percentage of Positive Population [1] was 79.5%, the endocytosis: MFI [1] was 100000 and the endocytosis: Percentage of Positive (%) [1] was 97.1%.
In the case of Trastuzumab analog (antibody), the endocytosis, direct detection: MFI [1] is reported as 18900, the endocytosis, direct detection: Percentage of Positive Population [1] is reported as 82.5% and the endocytosis, indirect detection: MFI [1] is reported as 23400. The endocytosis, indirect detection: Percentage of Positive Population [1] was 87.3%, the endocytosis: MFI [1] was 50400 and the endocytosis: Percentage of Positive (%) [1] was 88%. The flow cytometry test result (%) [3] was 97.8% and the flow cytometry test result (%) [4] was 98.5%.
